Measured values published in article PMC2688079.

Biological target: Aqy1 from Pichia pastoris (Pichia pastoris)
Assay: crystal structure; hanging drop vapour diffusion at 4°C, protein at 9 mg/ml in beta-octylglucopyranoside; Crystal1: 28% PEG400, 100 mM Na-citrate pH 3.5, 200 mM Li2SO4 (1.15 Å); Crystal2: 33% PEG400, 100 mM Tris pH 8.0, 100 mM NaCl, 100 mM CdCl2 (1.40 Å); both space group I4, identical structures

## Aqy1 from Pichia pastoris (natural protein)
  stoichiometry N: 4
